In general, Kd refers to a measure of binding affinity in units of concentration. The low end stands for a tighter complex, the high end for a looser complex.

In this assay the target is T1, TGFβ1 (R&D Systems).
T1 construct: also called TGFB1
Nature of the assay: single point SPR.

T1 sequence (P01137 279-390): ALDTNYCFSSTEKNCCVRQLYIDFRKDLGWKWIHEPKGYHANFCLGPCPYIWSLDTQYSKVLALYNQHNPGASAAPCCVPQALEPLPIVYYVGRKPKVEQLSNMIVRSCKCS

B1: Can-SL501-VH3 D108E / Can-SL501-VL2 (antibody, V domains shown)
VH: EVQLVESGGDLVKPGGSLRLSCVASGFTFSSYGMHWVRQAPGKELEWVAVISYDGSIKYYADAVKGRFTISRDNAKNTLYLQMNSLRAEDTAVYYCARTGEYSGYDTEPQYSWGQGTTVTVSS
VL: EIVMTQSPGSLAGSAGESVSINCRASQGIGDDLGWYQQKPGERPKLLIYGTSTLQSGVPARFSSSGSGTDFTLTINNLQAEDVGDYYCLQDSNYPLTFGAGTK
As for B1, the Kd was found to be 0.341 nM.

B2: Can-SL501-VH3 P109G / Can-SL501-VL2 (antibody, V domains shown)
VH: EVQLVESGGDLVKPGGSLRLSCVASGFTFSSYGMHWVRQAPGKELEWVAVISYDGSIKYYADAVKGRFTISRDNAKNTLYLQMNSLRAEDTAVYYCARTGEYSGYDTDGQYSWGQGTTVTVSS
VL: EIVMTQSPGSLAGSAGESVSINCRASQGIGDDLGWYQQKPGERPKLLIYGTSTLQSGVPARFSSSGSGTDFTLTINNLQAEDVGDYYCLQDSNYPLTFGAGTK
Regarding B2, the Kd was 1.59 nM.

B3: Can-SL501-VH3 P109S / Can-SL501-VL2 (antibody, V domains shown)
VH: EVQLVESGGDLVKPGGSLRLSCVASGFTFSSYGMHWVRQAPGKELEWVAVISYDGSIKYYADAVKGRFTISRDNAKNTLYLQMNSLRAEDTAVYYCARTGEYSGYDTDSQYSWGQGTTVTVSS
VL: EIVMTQSPGSLAGSAGESVSINCRASQGIGDDLGWYQQKPGERPKLLIYGTSTLQSGVPARFSSSGSGTDFTLTINNLQAEDVGDYYCLQDSNYPLTFGAGTK
B3: the dissociation constant (Kd) worked out at 4.97 nM.

B4: Can-SL501-VH3 P109H / Can-SL501-VL2 (antibody, V domains shown)
VH: EVQLVESGGDLVKPGGSLRLSCVASGFTFSSYGMHWVRQAPGKELEWVAVISYDGSIKYYADAVKGRFTISRDNAKNTLYLQMNSLRAEDTAVYYCARTGEYSGYDTDHQYSWGQGTTVTVSS
VL: EIVMTQSPGSLAGSAGESVSINCRASQGIGDDLGWYQQKPGERPKLLIYGTSTLQSGVPARFSSSGSGTDFTLTINNLQAEDVGDYYCLQDSNYPLTFGAGTK
In turn, B4 gave a Kd of 1.35 nM.

B5: Can-SL501-VH3 Y111P / Can-SL501-VL2 (antibody, V domains shown)
VH: EVQLVESGGDLVKPGGSLRLSCVASGFTFSSYGMHWVRQAPGKELEWVAVISYDGSIKYYADAVKGRFTISRDNAKNTLYLQMNSLRAEDTAVYYCARTGEYSGYDTDPQPSWGQGTTVTVSS
VL: EIVMTQSPGSLAGSAGESVSINCRASQGIGDDLGWYQQKPGERPKLLIYGTSTLQSGVPARFSSSGSGTDFTLTINNLQAEDVGDYYCLQDSNYPLTFGAGTK
B5 yielded an equilibrium dissociation constant (Kd) of 7.46 nM.

B6: Can-SL501-VH3 Y111W / Can-SL501-VL2 (antibody, V domains shown)
VH: EVQLVESGGDLVKPGGSLRLSCVASGFTFSSYGMHWVRQAPGKELEWVAVISYDGSIKYYADAVKGRFTISRDNAKNTLYLQMNSLRAEDTAVYYCARTGEYSGYDTDPQWSWGQGTTVTVSS
VL: EIVMTQSPGSLAGSAGESVSINCRASQGIGDDLGWYQQKPGERPKLLIYGTSTLQSGVPARFSSSGSGTDFTLTINNLQAEDVGDYYCLQDSNYPLTFGAGTK
For B6, the Kd was 13.9 nM.

B7: Can-SL501-VH3 D108N / Can-SL501-VL2 (antibody, V domains shown)
VH: EVQLVESGGDLVKPGGSLRLSCVASGFTFSSYGMHWVRQAPGKELEWVAVISYDGSIKYYADAVKGRFTISRDNAKNTLYLQMNSLRAEDTAVYYCARTGEYSGYDTNPQYSWGQGTTVTVSS
VL: EIVMTQSPGSLAGSAGESVSINCRASQGIGDDLGWYQQKPGERPKLLIYGTSTLQSGVPARFSSSGSGTDFTLTINNLQAEDVGDYYCLQDSNYPLTFGAGTK
B7: the affinity, expressed as Kd, was 9.68 nM.

B8: Can-SL501-VH3 P109F / Can-SL501-VL2 (antibody, V domains shown)
VH: EVQLVESGGDLVKPGGSLRLSCVASGFTFSSYGMHWVRQAPGKELEWVAVISYDGSIKYYADAVKGRFTISRDNAKNTLYLQMNSLRAEDTAVYYCARTGEYSGYDTDFQYSWGQGTTVTVSS
VL: EIVMTQSPGSLAGSAGESVSINCRASQGIGDDLGWYQQKPGERPKLLIYGTSTLQSGVPARFSSSGSGTDFTLTINNLQAEDVGDYYCLQDSNYPLTFGAGTK
As to B8, the Kd was 0.534 nM.

B9: Can-SL501-VH3 Q110S / Can-SL501-VL2 (antibody, V domains shown)
VH: EVQLVESGGDLVKPGGSLRLSCVASGFTFSSYGMHWVRQAPGKELEWVAVISYDGSIKYYADAVKGRFTISRDNAKNTLYLQMNSLRAEDTAVYYCARTGEYSGYDTDPSYSWGQGTTVTVSS
VL: EIVMTQSPGSLAGSAGESVSINCRASQGIGDDLGWYQQKPGERPKLLIYGTSTLQSGVPARFSSSGSGTDFTLTINNLQAEDVGDYYCLQDSNYPLTFGAGTK
On to B9, for which the dissociation constant (Kd) amounted to 6.4 nM.

B10: Can-SL501-VH3 D108T / Can-SL501-VL2 (antibody, V domains shown)
VH: EVQLVESGGDLVKPGGSLRLSCVASGFTFSSYGMHWVRQAPGKELEWVAVISYDGSIKYYADAVKGRFTISRDNAKNTLYLQMNSLRAEDTAVYYCARTGEYSGYDTTPQYSWGQGTTVTVSS
VL: EIVMTQSPGSLAGSAGESVSINCRASQGIGDDLGWYQQKPGERPKLLIYGTSTLQSGVPARFSSSGSGTDFTLTINNLQAEDVGDYYCLQDSNYPLTFGAGTK
Consider B10, for which the affinity, expressed as Kd, was 0.798 nM.

B11: Can-SL501-VH3 Q110R / Can-SL501-VL2 (antibody, V domains shown)
VH: EVQLVESGGDLVKPGGSLRLSCVASGFTFSSYGMHWVRQAPGKELEWVAVISYDGSIKYYADAVKGRFTISRDNAKNTLYLQMNSLRAEDTAVYYCARTGEYSGYDTDPRYSWGQGTTVTVSS
VL: EIVMTQSPGSLAGSAGESVSINCRASQGIGDDLGWYQQKPGERPKLLIYGTSTLQSGVPARFSSSGSGTDFTLTINNLQAEDVGDYYCLQDSNYPLTFGAGTK
For B11, the equilibrium dissociation constant (Kd) is 8.38 nM.

B12: Can-SL501-VH3 D108Q / Can-SL501-VL2 (antibody, V domains shown)
VH: EVQLVESGGDLVKPGGSLRLSCVASGFTFSSYGMHWVRQAPGKELEWVAVISYDGSIKYYADAVKGRFTISRDNAKNTLYLQMNSLRAEDTAVYYCARTGEYSGYDTQPQYSWGQGTTVTVSS
VL: EIVMTQSPGSLAGSAGESVSINCRASQGIGDDLGWYQQKPGERPKLLIYGTSTLQSGVPARFSSSGSGTDFTLTINNLQAEDVGDYYCLQDSNYPLTFGAGTK
For B12, binding was put at a Kd of 1.25 nM.

B13: Can-SL501-VH3 D108S / Can-SL501-VL2 (antibody, V domains shown)
VH: EVQLVESGGDLVKPGGSLRLSCVASGFTFSSYGMHWVRQAPGKELEWVAVISYDGSIKYYADAVKGRFTISRDNAKNTLYLQMNSLRAEDTAVYYCARTGEYSGYDTSPQYSWGQGTTVTVSS
VL: EIVMTQSPGSLAGSAGESVSINCRASQGIGDDLGWYQQKPGERPKLLIYGTSTLQSGVPARFSSSGSGTDFTLTINNLQAEDVGDYYCLQDSNYPLTFGAGTK
In the case of B13, the equilibrium dissociation constant (Kd) worked out at 0.724 nM.

B14: Can-SL501-VH3 P109W / Can-SL501-VL2 (antibody, V domains shown)
VH: EVQLVESGGDLVKPGGSLRLSCVASGFTFSSYGMHWVRQAPGKELEWVAVISYDGSIKYYADAVKGRFTISRDNAKNTLYLQMNSLRAEDTAVYYCARTGEYSGYDTDWQYSWGQGTTVTVSS
VL: EIVMTQSPGSLAGSAGESVSINCRASQGIGDDLGWYQQKPGERPKLLIYGTSTLQSGVPARFSSSGSGTDFTLTINNLQAEDVGDYYCLQDSNYPLTFGAGTK
Turning to B14, the Kd is 6.9 nM.

B15: Can-SL501-VH3 Q110T / Can-SL501-VL2 (antibody, V domains shown)
VH: EVQLVESGGDLVKPGGSLRLSCVASGFTFSSYGMHWVRQAPGKELEWVAVISYDGSIKYYADAVKGRFTISRDNAKNTLYLQMNSLRAEDTAVYYCARTGEYSGYDTDPTYSWGQGTTVTVSS
VL: EIVMTQSPGSLAGSAGESVSINCRASQGIGDDLGWYQQKPGERPKLLIYGTSTLQSGVPARFSSSGSGTDFTLTINNLQAEDVGDYYCLQDSNYPLTFGAGTK
Molecule B15 displayed a Kd of 5.61 nM.

B16: Can-SL501-VH3 Q110H / Can-SL501-VL2 (antibody, V domains shown)
VH: EVQLVESGGDLVKPGGSLRLSCVASGFTFSSYGMHWVRQAPGKELEWVAVISYDGSIKYYADAVKGRFTISRDNAKNTLYLQMNSLRAEDTAVYYCARTGEYSGYDTDPHYSWGQGTTVTVSS
VL: EIVMTQSPGSLAGSAGESVSINCRASQGIGDDLGWYQQKPGERPKLLIYGTSTLQSGVPARFSSSGSGTDFTLTINNLQAEDVGDYYCLQDSNYPLTFGAGTK
For the molecule B16, the dissociation constant (Kd) was 5.76 nM.

B17: Can-SL501-VH3 Y111H / Can-SL501-VL2 (antibody, V domains shown)
VH: EVQLVESGGDLVKPGGSLRLSCVASGFTFSSYGMHWVRQAPGKELEWVAVISYDGSIKYYADAVKGRFTISRDNAKNTLYLQMNSLRAEDTAVYYCARTGEYSGYDTDPQHSWGQGTTVTVSS
VL: EIVMTQSPGSLAGSAGESVSINCRASQGIGDDLGWYQQKPGERPKLLIYGTSTLQSGVPARFSSSGSGTDFTLTINNLQAEDVGDYYCLQDSNYPLTFGAGTK
On to B17, for which the Kd stood at 4.5 nM.

B18: Can-SL501-VH3 D108H / Can-SL501-VL2 (antibody, V domains shown)
VH: EVQLVESGGDLVKPGGSLRLSCVASGFTFSSYGMHWVRQAPGKELEWVAVISYDGSIKYYADAVKGRFTISRDNAKNTLYLQMNSLRAEDTAVYYCARTGEYSGYDTHPQYSWGQGTTVTVSS
VL: EIVMTQSPGSLAGSAGESVSINCRASQGIGDDLGWYQQKPGERPKLLIYGTSTLQSGVPARFSSSGSGTDFTLTINNLQAEDVGDYYCLQDSNYPLTFGAGTK
B18: the Kd came out at 1.83 nM.

B19: Can-SL501-VH3 P109Y / Can-SL501-VL2 (antibody, V domains shown)
VH: EVQLVESGGDLVKPGGSLRLSCVASGFTFSSYGMHWVRQAPGKELEWVAVISYDGSIKYYADAVKGRFTISRDNAKNTLYLQMNSLRAEDTAVYYCARTGEYSGYDTDYQYSWGQGTTVTVSS
VL: EIVMTQSPGSLAGSAGESVSINCRASQGIGDDLGWYQQKPGERPKLLIYGTSTLQSGVPARFSSSGSGTDFTLTINNLQAEDVGDYYCLQDSNYPLTFGAGTK
The molecule B19 had a dissociation constant Kd of 8.4 nM.

B20: Can-SL501-VH3 D108P / Can-SL501-VL2 (antibody, V domains shown)
VH: EVQLVESGGDLVKPGGSLRLSCVASGFTFSSYGMHWVRQAPGKELEWVAVISYDGSIKYYADAVKGRFTISRDNAKNTLYLQMNSLRAEDTAVYYCARTGEYSGYDTPPQYSWGQGTTVTVSS
VL: EIVMTQSPGSLAGSAGESVSINCRASQGIGDDLGWYQQKPGERPKLLIYGTSTLQSGVPARFSSSGSGTDFTLTINNLQAEDVGDYYCLQDSNYPLTFGAGTK
B20 showed a Kd of 3.51 nM.

B21: Can-SL501-VH3 Y111M / Can-SL501-VL2 (antibody, V domains shown)
VH: EVQLVESGGDLVKPGGSLRLSCVASGFTFSSYGMHWVRQAPGKELEWVAVISYDGSIKYYADAVKGRFTISRDNAKNTLYLQMNSLRAEDTAVYYCARTGEYSGYDTDPQMSWGQGTTVTVSS
VL: EIVMTQSPGSLAGSAGESVSINCRASQGIGDDLGWYQQKPGERPKLLIYGTSTLQSGVPARFSSSGSGTDFTLTINNLQAEDVGDYYCLQDSNYPLTFGAGTK
For the molecule B21, the Kd is 1.17 nM.

B22: Can-SL501-VH3 Q110V / Can-SL501-VL2 (antibody, V domains shown)
VH: EVQLVESGGDLVKPGGSLRLSCVASGFTFSSYGMHWVRQAPGKELEWVAVISYDGSIKYYADAVKGRFTISRDNAKNTLYLQMNSLRAEDTAVYYCARTGEYSGYDTDPVYSWGQGTTVTVSS
VL: EIVMTQSPGSLAGSAGESVSINCRASQGIGDDLGWYQQKPGERPKLLIYGTSTLQSGVPARFSSSGSGTDFTLTINNLQAEDVGDYYCLQDSNYPLTFGAGTK
Molecule B22 gave a Kd of 7.37 nM.
